We go through two molecules from paper PMC10679502.

Primed or numbered codes have the meaning given here. * marks the point of attachment. EDANS′ = N-[2-[(5-sulfo-1-naphthalenyl)amino]ethyl]-L-α-glutamine (donor); DABCYL = 4-((4-(dimethylamino)phenyl)azo)benzoyl (quencher); Benzoyl(2-NHMe) = CNc1ccccc1C(=O)*

For this experiment, the target named is presenilin homolog from the methanogen Methanoculleus marisnigri JR1, wild type (Methanoculleus marisnigri JR1).

For {EDANS′}-LVIVGLTFAV-{DABCYL} [ErbFRET EDANS-…-DABCYL], the Km of cleavage, FRET enzyme kinetics assay (Michaelis-Menten), in DDM, no inhibitor, 37 °C, 500 nM MCM.IAP turned out to be 4.9 µM and the Km of cleavage, FRET enzyme kinetics assay (Michaelis-Menten), in bicelles (DMPC/CHAPSO) was 6.3 µM.

Turning to {Benzoyl(2-NHMe)}-GGVVIATV-{Lys(DNP)} [C100FRET NMA-GGVVIATV-DNP], the Km of cleavage, FRET enzyme kinetics assay (Michaelis-Menten), in DDM is 7.5 µM and the Km of cleavage, FRET enzyme kinetics assay (Michaelis-Menten), in bicelles (DMPC/CHAPSO) was 2.8 µM.
